Assay [1] concerns the target human CLDN18.2 (human). The experiment in a line: competition FACS on HEK293/hCLDN18.2 cells; competitor 10 nM biotinylated PR000400; isotype is the reference of the formula.
Assay [2] concerns the target human CLDN18.2 (human). The experiment in a line: competition FACS on HEK293/hCLDN18.2 cells; competitor 200 nM biotinylated PR004549; isotype is the reference of the formula.
Assay [3] deals with Biotinylated murine CD3E&D (murine) (UniProt P22646). Put plainly: BLI (Octet), biotinylated CD3 on SA sensor, 1:1 global fit. (In general: Biolayer interferometry detects binding as a change in optical thickness at a sensor tip.)
Sequence of Biotinylated murine CD3E&D (murine) (P22646 22-108, chain 1 of 2): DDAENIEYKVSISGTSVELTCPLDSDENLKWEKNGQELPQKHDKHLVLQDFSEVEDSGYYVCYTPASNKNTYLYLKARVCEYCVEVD
Sequence of Biotinylated murine CD3E&D (murine) (P04235 22-105, chain 2 of 2, further chain): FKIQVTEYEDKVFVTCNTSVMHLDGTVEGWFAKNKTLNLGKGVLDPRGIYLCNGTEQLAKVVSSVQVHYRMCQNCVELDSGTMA

Take “Iso hIgG1 (CrownBio, C0001-4) (antibody)”: the Maximum inhibition rate (%) in the assay with human CLDN18.2 (human) [1] and with human CLDN18.2 (human) [2] was 0% throughout.

As usually defined, the Kd is a measure of binding affinity in units of concentration. In general, koff refers to the rate constant with which the complex falls apart. Read a low koff as slow dissociation. A word on the kon: it is the second-order rate constant of association. Low readings indicate slower complex formation, high ones faster complex formation. In the case of “anti-CD3e 48-2B (santa cruz biotechnology, SC-1174) (antibody)”, in assay [3], the Kd is 0.171 nM, the koff amounted to 0.000137 s⁻¹ and the kon came to 803000 M⁻¹ s⁻¹.

Source of the values: patent US20250340631A1.
